According to US20040248211A1, “ICAM-related protein” (priority 1992, published 2004):

Key:
soluble ICAM-R = target: T1, soluble ICAM-R (Homo sapiens, UniProt P32942); assay: ELISA binding to soluble ICAM-R coated onto plastic; details: serially diluted purified antibody; 50% maximal binding
T1 construct: made in house; host or cells: Sf-9 insect cells, recombinant baculovirus (pBBIII.ICAM-Rt1), purified on Lentil Lectin Sepharose
T1 sequence (P32942 30-485 limits assumed): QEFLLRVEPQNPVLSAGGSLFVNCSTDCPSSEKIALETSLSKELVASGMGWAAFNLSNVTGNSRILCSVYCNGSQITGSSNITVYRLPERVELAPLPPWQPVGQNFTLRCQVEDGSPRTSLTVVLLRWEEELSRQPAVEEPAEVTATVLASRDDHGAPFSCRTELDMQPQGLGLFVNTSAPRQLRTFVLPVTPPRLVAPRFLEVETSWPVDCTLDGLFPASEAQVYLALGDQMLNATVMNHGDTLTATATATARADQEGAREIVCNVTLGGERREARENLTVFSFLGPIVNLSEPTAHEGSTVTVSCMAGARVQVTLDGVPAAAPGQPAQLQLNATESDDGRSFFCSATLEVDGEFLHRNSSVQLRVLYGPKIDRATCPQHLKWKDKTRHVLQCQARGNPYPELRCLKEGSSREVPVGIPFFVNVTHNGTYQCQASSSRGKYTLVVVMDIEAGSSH
Description: Nine of the purified anti-ICAM-R monoclonal antibodies were diluted serially and assayed in an ELISA format for binding to a fixed amount of soluble ICAM-R (Example 9) coated onto plastic. The results of the assay are presented in Table 3 below wherein high affinity binding was defined as 50% maximal binding at a monoclonal antibody concentration of less than 1 μg/ml and low affinity binding was defined as 50% maximal binding at a monoclonal antibody concentration of greater than 1 μg/ml.

[1] = test system: binding of JY cells (CD18+) to recombinant soluble human ICAM-R; assay: JY cell adhesion to recombinant soluble human ICAM-R; format: cell-based; details: for Inhibition (%) of total CD18-dependent binding: antibody 10 μg/ml, PMA-treated JY cells, total = adhesion blocked by anti-CD18 60.3
Description: The partially purified shICAM-R protein was assayed for binding to SKW3 cells that were pretreated with phorbol ester as described in Example 7 to activate LFA-1-dependent adhesion. The ICAM-R protein was coated onto 96-well Immulon 4 (Dynatech) plates after adjusting the lectin eluate to 25 mM carbonate pH 9.6 and incubated overnight at 4° C. The plates were washed two times with PBS, blocked for 30 minutes at 37° C. with 200 ul/well PBS, 1% BSA, and washed again with PBS before adding cells. SKW3 cells were washed in serum-free RPMI (Gibco), labelled with Calcein-AM (Molecular Probes), and stimulated with PMA. Cells were then added to the plates and incubated for 1 hour at 37° C. The plates were inverted in prewarmed PBS, 1% BSA and were incubated for 30 minutes. The plates were then removed and half of the contents of each well was aspriated. The plates were then scanned with a fluorescence microscope and an automated fluorescence reader.
ICAM-R specific monoclonal antibodies listed in Table 11 in Example 22 were tested for their ability to inhibit binding of JY cells (CD18^+) to recombinant soluble human ICAM-R. Adhesion assays were performed as described in Example 9. Cells were treated with PMA and antibodies were then added at a final concentration of 10 μg/ml. Data was collected from triplicate wells during three independent experiments. Total CD18-dependent binding was determined as the amount of adhesion blocked by a control anti-CD18 monoclonal antibody 60.3. The percentage of total CD18-dependent binding that was inhibited by each monoclonal antibody is shown below in Table 4 wherein the names assigned to monoclonal antibodies produced by each hybridoma are given and “ND” indicates the antibody was not tested. The monoclonal antibody names are used throughout the following examples instead of hybridoma designations.

Monocytes = assay: MCP-1 release from monocytes; format: cell-based, human; details: for release of MCP-1 into conditioned medium: 8 and 18 hour time points
Description: Monocytes were isolated by elutriation from peripheral blood of normal donors. Plastic wells were coated with ICR-1.1, 2.1, 8.1 or albumin alone (10 μg/ml). After blocking free sites, the cells were placed into the wells in medium. After 1 hour in culture, the cells that were in the ICR Mab treated wells had flattened onto the substratum. Those cells plated in wells treated with BSA plus or minus LPS were rounded and not spread. After 8 or 18 hours of incubation at 37° C., the medium was removed and assayed for IL-8 immunoreactivity. […] By 18 hours, IL-8 levels in media from ICR monoclonal antibody wells were much elevated over control levels. ICR-1.1 induced levels increased ten times, ICR-2.1 induced levels were four times and ICR-8.1 induced levels were two times over the levels seen at the 8 hour time point. Similar experiments with monocytic cell lines (U937 and HL60) to determine if ICR monoclonal antibody can induce IL-8 release were conducted. U937 cells responded to each of the ICR monoclonal antibody treated wells by releasing IL-8 into the conditioned medium. […] No detectable morphological changes were detected with the U937 or HL60 cells.
Monocytes isolated and treated as described above were tested for release of MCP-1 at 8 and 18 hour time points. […] MCP-1 release elicited by ICR-1.1 peaked at 8 hours. Release from Mab ICR-2.1 and ICR-8.1 was not detected until 18 hours when it was 4-fold greater than the peak 1.1 induction level.

B1: ICR-8.1: anti-ICAM-R monoclonal antibody, IgG1, domain 1, ATCC HB 11232 (antibody, V domains shown)
VH: EIQLQQTGPELVKPGASVKISCKASGYSFTDCIILWVKQSHGKGLEWIGKINPYFGTTTYNLKFKGKATLTVDKSSSTAHMQLNSLTSEDSAVYYCARKEAYPDAMDYWGQGTSVTVSS
VL: DAVMTQTPLSLPVSLGDQASISCRSSQSLVHSNGDTYLHWYLQKPGQSPQLLIYKVSNRFSGVPDRFSGSGSGTDFTLKLSRVEAEDLGVYFCSQSTHVPYTFGGGTKLEIK
Affinity (soluble ICAM-R): High (50% maximal binding at a monoclonal antibody concentration of less than 1 μg/ml) | Blockade of Adhesion of JY Cells to Soluble ICAM-R [1]: YES | Inhibition (%) of total CD18-dependent binding [1]: 75% | release of MCP-1 into conditioned medium (Monocytes): induced release of MCP-1 | MCP-1 release at 18 hours relative to the peak ICR-1.1 induction level (Monocytes; not detected until 18 hours): 4 fold

B2: ICR-1.1: anti-ICAM-R monoclonal antibody, IgG2a, domain 1, ATCC HB 11053 (antibody, V domains shown)
VH: QVQLQQSGAELAKPGASVKMSCKASGYTFTVYWMHWVKQRPGQGLEWIGYINPNTDYTEYNQRFQDKATLTADKSSSTAYMQLSSLTSEDSAVYYCARWGGNSYGLDYWGQGTSVTVSS
VL: QIVLTQSPALMSASPGEKVTMTCSASSSVSYIYWYQQKPRSSPKPWIYLTSNLASGVPARFSGSGSGASYSLTISIMEAEDAATYYCQQWKSIPLTFGAGTKLELK
Affinity (soluble ICAM-R): Low (50% maximal binding at a monoclonal antibody concentration of greater than 1 μg/ml) | Blockade of Adhesion of JY Cells to Soluble ICAM-R [1]: YES | Inhibition (%) of total CD18-dependent binding [1]: 45% | time of peak MCP-1 release (Monocytes): 8 h | release of MCP-1 into conditioned medium (Monocytes): induced release of MCP-1
